Here are results for one substance from PMC6775779.

Usually stoichiometry N stands for the number of molecules, sites or subunits per partner or assembly.

The experiment has as its target HIV-1 integrase Q214C/Q221C double mutant, in virions (HIV-1). The experiment is described as follows: cross-linking.

In turn, “HIV-1 integrase Q214C/Q221C double mutant, in virions (enzyme)” yielded a fold increase of the dimer percentage over WT of 3 fold and a stoichiometry N of 2.
